Laboratory results from patent US20230174616A1.
*1 amine or outer side, *2 acyl side, *3 side chain or, on linkers, in order; H or OH if unused. Where no end group is shown, it is not given here. [ ]: non-standard residue; d: D form. Met(35S) = [35S]-methionine label, C[35S]CC[C@H](N[*:1])C(=O)[*:2]

Target: biotinylated hPD-L1 (extracellular domain of human PD-L1, Ala18 to Thr239, expressed in E. coli, non-glycosylated) (human)
Test: [35S]-labeled truncated variant on immobilized hPD-L1, normalized to [35S]-SPAM

B1: Trunc 3 (SPAM with P2, I3 and F4 deleted) (peptide)
peptide: [Met(35S)]LDHILNKFWILHYAGSGSSGHHHHHHSS
binding as compared with full-length SPAM: < 25%

B2: Trunc 4 (SPAM with P2, I3, F4 and L5 deleted) (peptide)
peptide: [Met(35S)]DHILNKFWILHYAGSGSSGHHHHHHSS
binding as compared with full-length SPAM: < 25%
